# Measured values from the supplement of paper PMC11246515.
# ± gives the standard deviation of the averaged measurements.
# Experiment: total protein half-life in vivo (active degradation + dilution); higher = more stable protein
# [1] = E. coli NCM3722 delta-clpP delta-lon delta-hslV, growth: N-lim chemostat, doubling time 6 h
# [2] = E. coli NCM3722 delta-clpP, growth: N-lim chemostat, doubling time 6 h
# [3] = E. coli NCM3722 delta-lon, growth: N-lim chemostat, doubling time 6 h
# [4] = E. coli NCM3722 delta-smpB, growth: N-lim chemostat, doubling time 6 h
# [5] = wild type E. coli NCM3722, growth: C-lim chemostat, doubling time 3 h
# [6] = wild type E. coli NCM3722, growth: C-lim chemostat, doubling time 6 h
# [7] = wild type E. coli NCM3722, growth: C-lim chemostat, doubling time 12 h
# [8] = wild type E. coli NCM3722, growth: N-lim chemostat, doubling time 6 h
# [9] = wild type E. coli NCM3722, growth: N-lim chemostat, doubling time 12 h
# [10] = wild type E. coli NCM3722, growth: P-lim chemostat, doubling time 6 h
# [11] = wild type E. coli NCM3722, growth: P-lim chemostat, doubling time 12 h
# [12] = E. coli NCM3722 delta-hslV, growth: N-lim chemostat, doubling time 6 h
sequence,measurement,setting,value
MRTLQGWLLPVFMLPMAVYAQEATVKEVHDAPAVRGSIIANMLQEHDNPFTLYPYDTNYLIYTQTSDLNKEAIASYDWAENARKDEVKFQLSLAFPLWRGILGPNSVLGASYTQKSWWQLSNSEESSPFRETNYEPQLFLGFATDYRFAGWTLRDVEMGYNHDSNGRSDPTSRSWNRLYTRLMAENGNWLVEVKPWYVVGNTDDNPDITKYMGYYQLKIGYHLGDAVLSAKGQYNWNTGYGGAELGLSYPITKHVRLYTQVYSGYGESLIDYNFNQTRVGVGVMLNDLF [P0A921],total protein half-life in vivo,[1],6.42 ± 0.11 h
same,total protein half-life in vivo,[2],6.15 ± 0.48 h
same,total protein half-life in vivo,[3],7.24 ± 0.85 h
same,total protein half-life in vivo,[4],5.96 ± 0.66 h
same,total protein half-life in vivo,[5],3.01 ± 0.048 h
same,total protein half-life in vivo,[6],6.37 ± 1.1 h
same,total protein half-life in vivo,[7],14.2 ± 0.33 h
same,total protein half-life in vivo,[8],6.28 ± 0.44 h
same,total protein half-life in vivo,[9],13.3 ± 0.75 h
same,total protein half-life in vivo,[10],6.13 ± 0.1 h
same,total protein half-life in vivo,[11],14.2 ± 0.75 h
MRTQWPSPAKLNLFLYITGQRADGYHTLQTLFQFLDYGDTISIELRDDGDIRLLTPVEGVEHEDNLIVRAARLLMKTAADSGRLPTGSGANISIDKRLPMGGGLGGGSSNAATVLVALNHLWQCGLSMDELAEMGLTLGADVPVFVRGHAAFAEGVGEILTPVDPPEKWYLVAHPGVSIPTPVIFKDPELPRNTPKRSIETLLKCEFSNDCEVIARKRFREVDAVLSWLLEYAPSRLTGTGACVFAEFDTESEARQVLEQAPEWLNGFVAKGANLSPLHRAML,total protein half-life in vivo,[2],4.11 ± 0.64 h
same,total protein half-life in vivo,[12],4.05 ± 0.64 h
same,total protein half-life in vivo,[3],4.25 ± 0.41 h
same,total protein half-life in vivo,[4],4.04 ± 0.42 h
same,total protein half-life in vivo,[5],2.95 ± 0.33 h
same,total protein half-life in vivo,[7],10.5 ± 0.63 h
same,total protein half-life in vivo,[8],4.43 ± 0.23 h
same,total protein half-life in vivo,[9],6.789 ± 0.062 h
same,total protein half-life in vivo,[10],5.31 ± 0.33 h
same,total protein half-life in vivo,[11],10.47 ± 0.049 h
MRTTIAVVLGAISLTSAFVFADKPDVARSANDEVSTLFFGHDDRVPVNDTTQSPWDAVGQLETASGNLCTATLIAPNLALTAGHCLLTPPKGKADKAVALRFVSNKGLWRYEIHDIEGRVDPTLGKRLKADGDGWIVPPAAAPWDFGLIVLRNPPSGITPLPLFEGDKAALTAALKAAGRKVTQAGYPEDHLDTLYSHQNCEVTGWAQTSVMSHQCDTLPGDSGSPLMLHTDDGWQLIGVQSSAPAAKDRWRADNRAISVTGFRDKLDQLSQK,total protein half-life in vivo,[1],5.08 ± 0.47 h
same,total protein half-life in vivo,[2],5.58 ± 0.3 h
same,total protein half-life in vivo,[12],6.26 ± 0.068 h
same,total protein half-life in vivo,[3],5.8 ± 0.71 h
same,total protein half-life in vivo,[4],4.76 ± 0.16 h
same,total protein half-life in vivo,[5],2.07 ± 0.13 h
same,total protein half-life in vivo,[6],4.406 ± 0.0069 h
same,total protein half-life in vivo,[7],9.64 ± 2.3 h
same,total protein half-life in vivo,[8],5.29 ± 0.23 h
same,total protein half-life in vivo,[9],10.9 ± 0.45 h
same,total protein half-life in vivo,[10],6.23 ± 0.28 h
same,total protein half-life in vivo,[11],11.4 ± 1.1 h
MRTTSFAKVAALCGLLALSGCASKITQPDKYSGFLNNYSDLKETTSATGKPVLRWVDPSFDQSKYDSIVWNPITYYPVPKPSTQVGQKVLDKILNYTNTEMKEAIAQRKPLVTTAGPRSLIFRGAITGVDTSKEGLQFYEVVPVALVVAGTQMATGHRTMDTRLYFEGELIDAATNKPVIKVVRQGEGKDLNNESTPMAFENIKQVIDDMATDATMFDVNKK,total protein half-life in vivo,[1],5.89 ± 0.069 h
same,total protein half-life in vivo,[12],6.47 ± 0.16 h
same,total protein half-life in vivo,[4],5.98 ± 0.26 h
same,total protein half-life in vivo,[5],3.33 ± 0.073 h
same,total protein half-life in vivo,[6],6.02 ± 0.91 h
same,total protein half-life in vivo,[7],10.3 ± 0.9 h
same,total protein half-life in vivo,[8],6.07 ± 0.31 h
same,total protein half-life in vivo,[9],12.8 ± 0.57 h
same,total protein half-life in vivo,[10],5.82 ± 0.2 h
same,total protein half-life in vivo,[11],13 ± 0.29 h
MRTVKVFEEAWPLHTPFVIARGSRSEARVVVVELEEEGIKGTGECTPYPRYGESDASVMAQIMSVVPQLEKGLTREELQKILPAGAARNALDCALWDLAARRQQQSLADLIGITLPETVITAQTVVIGTPDQMANSASTLWQAGAKLLKVKLDNHLISERMVAIRTAVPDATLIVDANESWRAEGLAARCQLLADLGVAMLEQPLPAQDDAALENFIHPLPICADESCHTRSNLKALKGRYEMVNIKLDKTGGLTEALALATEARAQGFSLMLGCMLCTSRAISAALPLVPQVSFADLDGPTWLAVDVEPALQFTTGELHL,total protein half-life in vivo,[3],5.93 ± 1.4 h
same,total protein half-life in vivo,[4],4.33 ± 0.052 h
same,total protein half-life in vivo,[5],2.73 ± 0.18 h
same,total protein half-life in vivo,[6],6.31 ± 1.1 h
same,total protein half-life in vivo,[7],9.313 ± 0.054 h
same,total protein half-life in vivo,[8],4.81 ± 0.22 h
same,total protein half-life in vivo,[9],11.2 ± 2.8 h
same,total protein half-life in vivo,[10],5.54 ± 0.5 h
same,total protein half-life in vivo,[11],12.119 ± 0.011 h
MRTVLNILNFVLGGFATTLGWLLATLVSIVLIFTLPLTRSCWEITKLSLVPYGNEAIHVDELNPAGKNVLLNTGGTVLNIFWLIFFGWWLCLMHIATGIAQCISIIGIPVGIANFKIAAIALWPVGRRVVSVETAQAAREANARRRFE [P0AB12],total protein half-life in vivo,[1],6.35 ± 0.66 h
same,total protein half-life in vivo,[2],6.3 ± 0.72 h
same,total protein half-life in vivo,[12],5.92 ± 0.069 h
same,total protein half-life in vivo,[3],5.93 ± 0.27 h
same,total protein half-life in vivo,[4],6.1 ± 0.31 h
same,total protein half-life in vivo,[5],2.89 ± 0.29 h
same,total protein half-life in vivo,[6],6.33 ± 0.089 h
same,total protein half-life in vivo,[7],12.5 ± 1 h
same,total protein half-life in vivo,[8],6.72 ± 1.3 h
same,total protein half-life in vivo,[9],12.3 ± 3.2 h
same,total protein half-life in vivo,[10],5.98 ± 0.26 h
same,total protein half-life in vivo,[11],12 ± 0.12 h
